Assay results published in patent publication US20230158141A1 (YAFEI SHANGHAI BIOLOG MEDICINE SCIENCE AND TECHNOLOGY, published 2023).
Substitutions are numbered along the chain they refer to. Names and notes keep the numbering of the source.

B1: anti-PD-1 antibody 2 HC Ala40Cys (antibody, human IgG4 S228P, kappa, V domains shown)
VH: QVQLVESGGGVVQPGRSLRLDCKASGITFSNSGMHWVRQCPGKGLEWVAVIWYDGSKRYYADSVKGRFTISRDNSKNTLFLQMNSLRAEDTAVYYCATNDDYWGQGTLVTVSS
VL: EIVLTQSPATLSLSPGERATLSCRASQSVSSYLAWYQQKPGQAPRLLIYDASNRATGIPARFSGSGSGTDFTLTISSLEPEDFAVYYCQQSSNWPRTFGQGTKVEIKR
modifications: arm on Cys40 as named in each row
B2: anti-PD-1 antibody 2 HC Ser71Cys (antibody, human IgG4 S228P, kappa, V domains shown)
VH: B1 VH with C40A, S71C
VL: B1 VL
modifications: arm on Cys71 as named in each row
B3: anti-PD-1 antibody 2 HC Ser25Cys (antibody, human IgG4 S228P, kappa, V domains shown)
VH: B1 VH with S25C, C40A
VL: B1 VL
modifications: arm on Cys25 as named in each row
B4: anti-PD-1 antibody 2 HC Ala24Cys (antibody, human IgG4 S228P, kappa, V domains shown)
VH: B1 VH with A24C, C40A
VL: B1 VL
modifications: arm on Cys24 as named in each row
B5: anti-PD-1 antibody 2 HC Gly42Cys (antibody, human IgG4 S228P, kappa, V domains shown)
VH: B1 VH with C40A, G42C
VL: B1 VL
modifications: arm on Cys42 as named in each row
B6: anti-PD-1 antibody 2 HC Gly9Cys (antibody, human IgG4 S228P, kappa, V domains shown)
VH: B1 VH with G9C, C40A
VL: B1 VL
modifications: arm on Cys9 as named in each row
B7: anti-PD-1 antibody 2 HC Ala92Cys (antibody, human IgG4 S228P, kappa, V domains shown)
VH: B1 VH with C40A, A92C
VL: B1 VL
modifications: arm on Cys92 as named in each row
B8: anti-PD-1 antibody 2 HC Ala88Cys (antibody, human IgG4 S228P, kappa, V domains shown)
VH: B1 VH with C40A, A88C
VL: B1 VL
modifications: arm on Cys88 as named in each row
B9: anti-PD-1 antibody 2 HC Ser30Cys (antibody, human IgG4 S228P, kappa, V domains shown)
VH: B1 VH with S30C, C40A
VL: B1 VL
modifications: arm on Cys30 as named in each row
B10: anti-PD-1 antibody 2 HC Gly44Cys (antibody, human IgG4 S228P, kappa, V domains shown)
VH: B1 VH with C40A, G44C
VL: B1 VL
modifications: arm on Cys44 as named in each row
B11: anti-PD-1 antibody 2 HC Gly8Cys (antibody, human IgG4 S228P, kappa, V domains shown)
VH: B1 VH with G8C, C40A
VL: B1 VL
modifications: arm on Cys8 as named in each row
B12: anti-PD-1 antibody 2 HC Gly26Cys (antibody, human IgG4 S228P, kappa, V domains shown)
VH: B1 VH with G26C, C40A
VL: B1 VL
modifications: arm on Cys26 as named in each row
B13: anti-PD-1 antibody 2 HC Ser17Cys (antibody, human IgG4 S228P, kappa, V domains shown)
VH: B1 VH with S17C, C40A
VL: B1 VL
modifications: arm on Cys17 as named in each row
B14: anti-PD-1 antibody 2 HC Gly15Cys (antibody, human IgG4 S228P, kappa, V domains shown)
VH: B1 VH with G15C, C40A
VL: B1 VL
modifications: arm on Cys15 as named in each row
B15: anti-PD-1 antibody 1 light chain G28C (antibody, human IgG4 S228P, kappa, V domains shown)
VH: QVQLVQSGVEVKKPGASVKVSCKASGYTFTNYYMYWVRQAPGQGLEWMGGINPSNGGTNFNEKFKNRVTLTTDSSTTTAYMELKSLQFDDTAVYYCARRDYRFDMGFDYWGQGTTVTVSS
VL: EIVLTQSPATLSLSPGERATLSCRASKCVSTSGYSYLHWYQQKPGQAPRLLIYLASYLESGVPARFSGSGSGTDFTLTISSLEPEDFAVYYCQHSRDLPLTFGGGTKVEIKR
notes: also called PD-1-Ab1-Gly28Cys; PD1 Ab-C28
B16: anti-PD-1 antibody 1 light chain S56C (antibody, human IgG4 S228P, kappa, V domains shown)
VH: B15 VH
VL: B15 VL with C28G, S56C
B17: anti-PD-1 antibody 1 light chain G61C (antibody, human IgG4 S228P, kappa, V domains shown)
VH: B15 VH
VL: B15 VL with C28G, G61C
B18: anti-PD-1 antibody 1 light chain G33C (antibody, human IgG4 S228P, kappa, V domains shown)
VH: B15 VH
VL: B15 VL with C28G, G33C
B19: anti-PD-1 antibody 1 light chain S95C (antibody, human IgG4 S228P, kappa, V domains shown)
VH: B15 VH
VL: B15 VL with C28G, S95C
B20: anti-PD-1 antibody 1 light chain S60C (antibody, human IgG4 S228P, kappa, V domains shown)
VH: B15 VH
VL: B15 VL with C28G, S60C
B21: anti-PD-1 antibody 1 light chain S32C (antibody, human IgG4 S228P, kappa, V domains shown)
VH: B15 VH
VL: B15 VL with C28G, S32C
B22: anti-PD-1 antibody 1 light chain S35C (antibody, human IgG4 S228P, kappa, V domains shown)
VH: B15 VH
VL: B15 VL with C28G, S35C
B23: anti-PD-1 antibody 1 light chain S30C (antibody, human IgG4 S228P, kappa, V domains shown)
VH: B15 VH
VL: B15 VL with C28G, S30C
B24: anti-PD-1 antibody 1 light chain S26C (antibody, human IgG4 S228P, kappa, V domains shown)
VH: B15 VH
VL: B15 VL with S26C, C28G
B25: anti-PD-1 antibody 2 light chain A34C (antibody, human IgG4 S228P, kappa, V domains shown)
VH: B1 VH with C40A
VL: B1 VL with A34C
B26: anti-PD-1 antibody 2 light chain G57C (antibody, human IgG4 S228P, kappa, V domains shown)
VH: B1 VH with C40A
VL: B1 VL with G57C
B27: anti-PD-1 antibody 2 light chain S26C (antibody, human IgG4 S228P, kappa, V domains shown)
VH: B1 VH with C40A
VL: B1 VL with S26C
B28: anti-PD-1 antibody 2 light chain S91C (antibody, human IgG4 S228P, kappa, V domains shown)
VH: B1 VH with C40A
VL: B1 VL with S91C
B29: anti-PD-1 antibody 2 light chain T56C (antibody, human IgG4 S228P, kappa, V domains shown)
VH: B1 VH with C40A
VL: B1 VL with T56C
B30: anti-PD-1 antibody 2 light chain S52C (antibody, human IgG4 S228P, kappa, V domains shown)
VH: B1 VH with C40A
VL: B1 VL with S52C
B31: anti-PD-1 antibody 2 light chain S31C (antibody, human IgG4 S228P, kappa, V domains shown)
VH: B1 VH with C40A
VL: B1 VL with S31C
B32: anti-PD-1 antibody 2 light chain S92C (antibody, human IgG4 S228P, kappa, V domains shown)
VH: B1 VH with C40A
VL: B1 VL with S92C
B33: anti-PD-1 antibody 2 light chain S30C (antibody, human IgG4 S228P, kappa, V domains shown)
VH: B1 VH with C40A
VL: B1 VL with S30C
B34: anti-PD-1 antibody 2 light chain S28C (antibody, human IgG4 S228P, kappa, V domains shown)
VH: B1 VH with C40A
VL: B1 VL with S28C
B35: anti-PD-1 antibody 2 light chain T97C (antibody, human IgG4 S228P, kappa, V domains shown)
VH: B1 VH with C40A
VL: B1 VL with T97C
B36: anti-PD-1 antibody 2 HC Thr69Cys (antibody, human IgG4 S228P, kappa, V domains shown)
VH: B1 VH with C40A, T69C
VL: B1 VL
modifications: arm on Cys69 as named in each row
B37: anti-PD-1 antibody 2 HC Gly10Cys (antibody, human IgG4 S228P, kappa, V domains shown)
VH: B1 VH with G10C, C40A
VL: B1 VL
modifications: arm on Cys10 as named in each row

Biological target: T1, PD-1 (UniProt Q15116 25-167, limits assumed)
Assay: ELISA; S13 on the Cys
T1 sequence (Q15116 25-167 limits assumed): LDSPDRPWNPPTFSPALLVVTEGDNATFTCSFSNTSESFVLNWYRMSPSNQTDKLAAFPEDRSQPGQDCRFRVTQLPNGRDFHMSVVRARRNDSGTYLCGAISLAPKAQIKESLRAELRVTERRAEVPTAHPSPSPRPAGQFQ

Row | binding activity, % of wild type | Binder
1 | 37.2% | B1
2 | 22.9% | B2
3 | 27% | B3
4 | 32.3% | B4
5 | 29.8% | B5
6 | 24.6% | B6
7 | 15% | B7
8 | 27% | B8
9 | 15.3% | B9
10 | 30.8% | B10
11 | 34.2% | B11
12 | 11.7% | B12
13 | 42.4% | B13
14 | 21.5% | B14

Biological target: PD-1 (UniProt Q15116 25-167, limits assumed)
Assay: ELISA, OD mutant/OD WT; A=90-110%
Target sequence in this assay (Q15116 25-167 limits assumed): as above

Row | binding activity (OD after mutation/OD wild type) | Binder
15 | 90 to 110% | B15
16 | 90 to 110% | B16
17 | 90 to 110% | B17
18 | 90 to 110% | B18
19 | 90 to 110% | B19
20 | 90 to 110% | B20
21 | 90 to 110% | B21
22 | 90 to 110% | B22
23 | 90 to 110% | B23
24 | 90 to 110% | B24
25 | 90 to 110% | B25
26 | 90 to 110% | B26
27 | 90 to 110% | B27
28 | 90 to 110% | B28
29 | 90 to 110% | B29
30 | 90 to 110% | B30
31 | 90 to 110% | B31
32 | 90 to 110% | B32
33 | 90 to 110% | B33
34 | 90 to 110% | B34
35 | 90 to 110% | B35

Biological target: T1, PD-1
Assay: ELISA; Cys mutant, no arm

Row | binding activity, % of wild type | Binder
36 | 85.3% | B1
37 | 81.4% | B2
38 | 99.8% | B3
39 | 99.6% | B4
40 | 83.4% | B5
41 | 97.8% | B6
42 | 85% | B7
43 | 84.3% | B8
44 | 89.7% | B9
45 | 99.3% | B10
46 | 93.2% | B11
47 | 95.4% | B12
48 | 85% | B13
49 | 85.6% | B14

Biological target: T1, PD-1
Assay: ELISA; S9 on the Cys

Row | binding activity, % of wild type | Binder
50 | 50.3% | B1
51 | 56.9% | B2
52 | 48.7% | B3
53 | 45.6% | B4
54 | 78.6% | B36
55 | 63.6% | B5
56 | 87.4% | B6
57 | 64.6% | B7
58 | 46.8% | B8
59 | 31.8% | B9
60 | 78.3% | B10
61 | 69.3% | B37
62 | 78.3% | B11
63 | 31.8% | B12
64 | 75.3% | B13
65 | 32.5% | B14
